Data reported in US20260231954A1, “PESTICIDAL ENZYMES FOR USE ON NEMATODES, INSECTS, AND MOLLUSKS” (priority 2023, published 2026).

How the values were obtained:
[1] = tested on: SCN juveniles (SCN HG type 1.2.5.7, race 2); experiment: In-vitro plate assay of SCN juvenile viability (difference in percent death); type: in vivo
Protocol: (§1) SCN eggs were obtained from SCN HG type 1.2.5.7, race 2. Eggs were rinsed 4 times with sterile water. Eggs were transferred to a 6-well plate and resuspended in 5 mL of 3 mM ZnSO4. The plate was sealed with parafilm, covered with aluminum foil to prevent light from entering the plate, and placed in a plate growth chamber at 25° C. and 80% relative humidity. After 6-7 days of incubation, an estimate of hatched SCN juveniles was obtained from the well to determine the overall number of juveniles per 10 μL. The concentration of the hatchery solution was adjusted until it consisted of 20-30 juveniles per 10 μL.
Potato dextrose agar media containing chloramphenicol and chlortetracycline was prepared and added to sterile twenty-four-well cell culture plates (1 mL per well). The plates were divided according to the pre-determined N-value for each treatment (N=12-24). Each treatment being tested was added to the agar surface within each well at a rate of 40 μL per well. Without allowing the treatments to dry, 10 μL of the prepared nematode mixture was added to the agar surface within each well.
To quantify the treatments' effects on nematode viability, the nematodes were examined under a dissecting microscope at 20× magnification. Initial (TO) values for the number of live juveniles, number of dead juveniles and total number of juveniles were recorded immediately after preparation of each well. The plates were then wrapped in parafilm around the open edge, encased in aluminum foil, and placed in secondary containment. The secondary containment was placed in a plant growth chamber at 25° C. and 80% relative humidity. At approximately 24 hours post addition of juveniles, the plates were evaluated, and the number of live juveniles, dead juveniles and total number of juveniles were recorded (T24).
The difference in percent death at T0 vs T24 was calculated by subtracting the percent dead at TO [(#dead juveniles/total #juveniles)×100] from the percent dead at T24 [(#dead juveniles/#total juveniles originally present)×100]. […] If the ANOVA indicated a significant difference existed among treatments, Tukey's HSD post hoc test was used to perform a pairwise contrast between each set of treatments. Different letters denote statistically significant results at P<0.05.
as §1, with “from” for “from SCN”, “rinsed four” for “rinsed 4”, “and 80-90%” for “and 80%”, “from each” for “from the”
Potato dextrose agar media containing chloramphenicol and chlortetracycline was prepared and added to sterile twenty-four-well cell culture plates (1 mL per well). The plates were divided according to the pre-determined N-value for each treatment (N=24). […]
To quantify the treatments' effects on nematode viability, the nematodes were examined under a dissecting microscope at 20× magnification. Initial (TO) values for the number of live juveniles, number of dead juveniles and total number of juveniles were recorded. […]

[2] = tested on: soybean cyst nematode (SCN); experiment: SCN reproduction after application of enzyme or recombinant strain to soil; type: in vivo, Heterodera glycines; conditions: Table 34; for % Comparison to Control (figure in parentheses): change vs water control; for % Comparison to Control: first figure, water control = 100%; for Average cysts per g of root tissue: free enzyme 0.5 mL/plant to soil, soybean 2830E3, 3 weeks
Protocol: To determine the efficacy of nematicidal enzymes applied to soil, a controlled environment trial was performed with 7-day old soybean plants (variety 2830E3) grown in pots. Enzymes were produced as described in Example 2. Prior to inoculation, 0.5 mL of neutral protease (SEQ ID NO: 127), esterase B (SEQ ID NO: 89), or chitinase 19F (SEQ ID NO: 182) free enzyme solution was applied to the soil around the base of each plant, or 0.5 mL of water was applied for the control (30 plants per treatment). Then, hatched SCN juveniles were applied to the soil around each plant as described in Example 2, and three weeks later, cysts per gram of root tissue was determined as described in Example 2. The data was analyzed as in Example 2 and appears in Tables 33 and 34.
To determine the efficacy of recombinant strains applied to soil, a controlled environment trial was performed as described in Example 18 above (Reduction of soybean cyst nematode reproduction by enzymes applied to soil), with the exception that a recombinant strain expressing neutral protease (SEQ ID NO: 127) was applied instead of a free enzyme solution. The recombinant strain was produced as in Example 3, and the treatment applied to soil as a whole cell broth.

[3] = tested on: Fall armyworm (Spodoptera frugiperda); experiment: Diet-surface overlay (DSO) bioassay on Fall armyworm; type: in vivo; conditions: for Larva Stage I / Larva Stage II / Larva Stage III / Larva Stage IV / Dead Larva: Fall armyworm
Protocol: (§2) Diet-surface overlay bioassays are conducted with artificial diet mixes without antibiotics in 1.5 cm^2 cell bioassay trays(s). Artificial diets are commercially available from Southland Products Inc. Diets were prepared by dispersing 0.5 mL of molten diet to each 1.5 cm^2 cell. After solidification, 0.1 mL enzyme treatments were dispersed on top of diet in each cell and the tray was gently rocked in an orbital shaker to spread the liquid uniformly over the diet surface. Trays were placed under clean airflow until the surface of each cell was uniformly dried. One or two 16-cell sections were used per treatment (the number in larvae treated was 16 or 32).
(§3) One healthy first instar larva was placed into each treatment cell, each 16-cell section was covered with a re-sealable lid and incubated at 27° C. and light-dark period of 16:8 hrs. After 7 days, and according to the species, the number of individuals in the following developmental categories was recorded.
(§4) Negative/untreated controls were treated with filtered water and positive controls were treated with lethal doses of Bacillus thuringiensis subsp. Kurstaki (Btk) spores at 1000 ppm.

[4] = tested on: soybean cyst nematode (SCN, Heterodera glycines); experiment: Soybean cyst nematode reproduction on soybean after seed treatment, controlled environment (cysts per gram of root tissue or per plant); type: in vivo
[5] = tested on: Diamondback moth (Plutella xylostella); experiment: Diet-surface overlay (DSO) bioassay on Diamondback moth; type: in vivo
Protocol: as §2, §3
Diamondback moth (Plutella xylostella): Dead Larva (lack of movement), Larva Stage I (≤50% relative size), Larva Stage II (100% relative size, full size), Early Pupa (light green color), Late Pupa (light-dark brown color), and Adult.
as §4

[6] = Table 48, chitinases, number of individuals of n = 32, DSO bioassay
[7] = Table 11, free enzyme seed treatment 2 fl. oz. per unit of seed (ILEVO 0.15 mg active ingredient per seed), soybean P18A98X, 3 weeks after inoculation
[8] = Table 49, esterases, Diamondback moth, number of individuals of n = 32
[9] = Table 50, esterases, number of individuals of n = 32

B1: Chitinase 19F (SEQ ID NO: 182): Streptomyces coelicolor Chitinase F (Chi19F) (protein)
chain: ASCSSYHAWSADANYNTGDIVRYTDGKAYIAEHANPGYDPLISTWYWDPYACDGGSQTPVGNFVVSEAQFNQMFPGRNSFYTYSGLTAALSAYPGFANTGSDTTKKQEAAAFLANVSHETGGLVYIVEQNTANYPHYCDWNQPYGCPAGQAAYYGRGPIQLSWNFNYKAAGDALGIDLLGNPWLVQNDAAVAWKTGLWYWNTQSGPGTMTPHNAMVNGAGFGQTIRSINGSLECDGKNPAQVQSRVTKYQQFAQILGVSPGGNLYC
modifications: Chitinase F (Chi19F); Streptomyces coelicolor
[1]; Table 32, 40 μL per well of each treatment, water only 4%
  Difference in Percent Death of Nematodes for 0 to 24 Hours: 24%
[2]
  % Comparison to Control (figure in parentheses): −32%
  % Comparison to Control: reduced SCN reproduction
  Average cysts per g of root tissue: 95.6 cysts per g of root tissue
[2]; listed as Chitinase 19F free enzyme (SEQ ID NO: 182)
  % Comparison to Control: 68%
[3]; [6]
  Larva Stage I: 4
  Larva Stage II: 14
  Larva Stage III: 5
  Larva Stage IV: 6
[3]; Table 48, chitinases, number of individuals of n = 32, DSO bioassay, dose per treatment in mU/mL Diet
  Dead Larva: 3
[4]; [7]
  Average cysts per g of root tissue: 48.8 cysts per g of root tissue
[4]; Table 12, free enzyme seed treatment 2 fl. oz. per unit of seed (ILEVO 0.15 mg active ingredient per seed), soybean P18A98X
  Average cysts per g of root tissue: 296.9 cysts per g of root tissue

B2: Esterase B (SEQ ID NO: 89): Bacillus subtilis Esterase (EstB without signal sequence) (protein, listed as Bacillus subtilis)
chain: ESVHNPVVLVHGISGASYNFFAIKNYLISQGWQSNKLYAIDFYDKTGNNLNNGPQLASYVDRVLKETGAKKVDIVAHSMGGANTLYYIKYLGGGNKIQNVVTLGGANGLVSSTALPGTDPNQKILYTSIYSLNDQIVINSLSRLQGARNIQLYGIGHIGLLSNSQVNGYIKEGLNGGGLNTN
modifications: Esterase (EstB H191 without signal sequence)
[1]; Table 28, 40 μL of each treatment per well, fertilizer diluted to 3% v/v
  Difference in Percent Death of Nematodes for 0 to 24 Hours: 3%
[1]; single treatment vs Esterase B + 10-34-0 fertilizer combination
  difference in percent death over twenty-four hours relative to the combination treatment: −7%
[2]
  % Comparison to Control (figure in parentheses): −16%
  % Comparison to Control: reduced SCN reproduction
  Average cysts per g of root tissue: 117.3 cysts per g of root tissue
[2]; listed as Esterase B free enzyme (SEQ ID NO: 89)
  % Comparison to Control: 84%
[5]; [8]
  Adult: 0
  Early Pupa: 4
  Larva Stage I: 3
  Larva Stage II: 8
  Late Pupa: 17
[5]; Table 49, esterases, Diamondback moth, number of individuals of n = 32, DSO bioassay, dose per treatment in U/mL Diet
  Dead Larva: 0
[5]; text to Table 49, esterases, n = 32
  individuals with delayed larva-pupa development: 47%
[5]; text to Table 49: 34% of which were at larva stage
  individuals at larva stage: 34%
[3]; [9]
  Larva Stage I: 3
  Larva Stage II: 4
  Larva Stage III: 14
  Larva Stage IV: 10
[3]; Table 50, esterases, number of individuals of n = 32, DSO bioassay, dose per treatment in U/mL Diet
  Dead Larva: 1
[3]; text to Table 50, esterases, n = 32
  individuals with delayed development: 67%
[4]; [7]
  Average cysts per g of root tissue: 19.6 cysts per g of root tissue
[4]; Table 15, seed treated with whole cell broth, soybean P18A98X
  Average cysts per g of root tissue: 56.3 cysts per g of root tissue
[4]; Table 25, dried formulation 0.04 units of enzyme activity per seed, liquid 2 fl oz per unit of seed, soybean 3230E3
  Average cysts per g of root tissue: 233.2 cysts per g of root tissue
